The test addresses CD38 antigen (in solution, Octet analyte) (human, UniProt P28907 43-300, limits assumed). Kind of test: BLI (Octet Red), antibody captured on AHC sensor, antigen in solution, 1:1 model. In general terms: BLI is a label-free optical method that tracks binding on a fibre tip over time.

Description: Binding experiments were performed on Octet Red at 25° C. The antibodies were loaded onto anti-hIgG Fc Capture (AHC) biosensors for 300 seconds. The ligand-loaded sensors were dipped into a two-fold series dilution (starting at 300 nM) of the antigens (CD19 and CD38) for 240 seconds of CD19 and 150 seconds of CD38 for association followed by dissociation for 600 seconds of CD19 and 130 seconds of CD38. Kinetic constants were calculated using a monovalent (1:1) binding model.

B1: BS1M-4 (BS1 anti-CD38 arm CDR-H2 variant RVIPHLGTAN) (bispecific antibody, human IgG1, kappa)
heavy: not shown
VH: QVQLVQSGAEVKKPGSSVKVSCKASGGTFSSYAFSWVRQAPGQGLEWMGRVIPHLGTANSAQKFQGRVTITADKSTSTAYMELSSLRSEDTAVYYCARDDIAALGPFDYWGQGTLVTVSS
light: not shown
notes: BS1 format
Take B1: the Kd (usually the equilibrium constant for the complex coming apart) was determined as 94.4 nM.

B2: BS1M-7 (BS1 anti-CD38 arm CDR-H2 variant RVIPQLGTAN) (bispecific antibody, human IgG1, kappa)
heavy: not shown
VH: QVQLVQSGAEVKKPGSSVKVSCKASGGTFSSYAFSWVRQAPGQGLEWMGRVIPQLGTANSAQKFQGRVTITADKSTSTAYMELSSLRSEDTAVYYCARDDIAALGPFDYWGQGTLVTVSS
light: not shown
notes: BS1 format
Turning to B2, the Kd is 60.5 nM.

The record behind these values is patent US20240392000A1 (BIOGRAPH 55, published 2024).
